These results are taken from US20030082185A1.

The test has as its target HIV-1 JR-FL gp120 envelope glycoprotein (HIV-1 JR-FL). Briefly: cell-based or functional assay.

The substance “CD4-IgG2 (from UniProt P01730 26-204; P01730 26-204) (Fc fusion)” had a K (equal to the IC50) for inhibition of HIV-1 env-mediated membrane fusion, RET assay, HeLa-EnvJR-FL and PM1 cells of 0.31 µg/mL.
